Assay results as given in the supplement of paper PMC9112550, “Optimization of the antimicrobial peptide Bac7 by deep mutational scanning” (BMC Biology, 2022).

tested on: Escherichia coli TOP10; assay: shrunken log2 fold change of peptide-encoding DNA abundance (4.5 h post-induction vs induction); higher = less antimicrobial activity (less host growth inhibition); settings: time post-induction: 4.5 h; library: site-saturation at positions 5, 18, 19, 20
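Also: peptides expressed intracellularly from a pBAD plasmid library in pooled LB shake-flask culture, induced with 0.3% L-arabinose, DNA abundance read by NGS, three biological replicates, DESeq2 with apeglm shrinkage.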

Point of comparison: RRIRQRPPRLPRPRPRPTSYPRP, “shrunken log2 fold change” value -0.154. Against it:
- RRIRGRPPRLPRPRPRPYMWPRP — lower, -0.361
- RRIRTRPPRLPRPRPRPLTTPRP — within 0.2 log units, -0.0573
- RRIRDRPPRLPRPRPRPMFNPRP — within 0.2 log units, -0.0203
- RRIRKRPPRLPRPRPRPHEFPRP — within 0.2 log units, -0.0156
- RRIRMRPPRLPRPRPRPPACPRP — higher, 1.22
- RRIRRRPPRLPRPRPRPIKPPRP — within 0.2 log units, 0.0148
- RRIRQRPPRLPRPRPRPPQNPRP — higher, 0.663
- RRIRKRPPRLPRPRPRPTSAPRP — higher, 0.797
- RRIRSRPPRLPRPRPRPAMPPRP — higher, 0.206
- RRIRYRPPRLPRPRPRPWRVPRP — within 0.2 log units, 0.0112
- RRIRPRPPRLPRPRPRPAPWPRP — higher, 0.436
- RRIRPRPPRLPRPRPRPTCFPRP — higher, 0.0572
- RRIRPRPPRLPRPRPRPMTHPRP — within 0.2 log units, -0.268
- RRIRHRPPRLPRPRPRPALDPRP — within 0.2 log units, -0.103
- RRIRFRPPRLPRPRPRPECVPRP — within 0.2 log units, 0.0137
- RRIRCRPPRLPRPRPRPKQWPRP — within 0.2 log units, -0.0437
- RRIRWRPPRLPRPRPRPGMWPRP — higher, 0.729
- RRIRPRPPRLPRPRPRPMLIPRP — lower, -0.553
- RRIRFRPPRLPRPRPRPRLGPRP — higher, 0.347
- RRIRMRPPRLPRPRPRPQVTPRP — within 0.2 log units, -0.116
- RRIRFRPPRLPRPRPRPHPRPRP — higher, 0.5
- RRIRGRPPRLPRPRPRPCYRPRP — within 0.2 log units, -0.0861
- RRIRVRPPRLPRPRPRPNNGPRP — lower, -0.497
- RRIRIRPPRLPRPRPRPSSFPRP — lower, -0.711
- RRIRNRPPRLPRPRPRPFEKPRP — within 0.2 log units, -0.0819
- RRIRWRPPRLPRPRPRPQYWPRP — within 0.2 log units, -0.184
- RRIRYRPPRLPRPRPRPSVLPRP — lower, -0.444
- RRIRRRPPRLPRPRPRPPITPRP — higher, 0.13
- RRIRVRPPRLPRPRPRPIDHPRP — within 0.2 log units, -0.152
- RRIRVRPPRLPRPRPRPAHLPRP — within 0.2 log units, -0.0953
- RRIRPRPPRLPRPRPRPFHHPRP — lower, -0.763
- RRIRGRPPRLPRPRPRPEGDPRP — higher, 1.94
- RRIRVRPPRLPRPRPRPPKGPRP — higher, 0.18
- RRIRQRPPRLPRPRPRPPNLPRP — within 0.2 log units, -0.00283
- RRIRNRPPRLPRPRPRPFQYPRP — within 0.2 log units, -0.0242
- RRIRFRPPRLPRPRPRPMAYPRP — within 0.2 log units, -0.0672
- RRIRNRPPRLPRPRPRPVQRPRP — within 0.2 log units, -0.186
- RRIRKRPPRLPRPRPRPSSLPRP — lower, -0.557
- RRIRHRPPRLPRPRPRPVAPPRP — higher, 0.222
- RRIRARPPRLPRPRPRPWGIPRP — within 0.2 log units, -0.0125
- RRIRTRPPRLPRPRPRPGNPPRP — within 0.2 log units, -0.34
- RRIRLRPPRLPRPRPRPQVAPRP — higher, 0.0825
- RRIRWRPPRLPRPRPRPIDIPRP — lower, -0.535
- RRIRKRPPRLPRPRPRPGEVPRP — higher, 0.268
- RRIRLRPPRLPRPRPRPRQGPRP — higher, 0.252
- RRIRPRPPRLPRPRPRPQNKPRP — lower, -0.479
- RRIRFRPPRLPRPRPRPCQEPRP — higher, 0.176
- RRIRLRPPRLPRPRPRPTVTPRP — within 0.2 log units, -0.0848
- RRIRWRPPRLPRPRPRPKFGPRP — higher, 0.206
- RRIRKRPPRLPRPRPRPMTKPRP — higher, 0.397
- RRIRARPPRLPRPRPRPHNKPRP — lower, -0.398
- RRIRLRPPRLPRPRPRPRIGPRP — within 0.2 log units, 0.0176
- RRIRERPPRLPRPRPRPEGRPRP — higher, 0.583
- RRIRRRPPRLPRPRPRPWHFPRP — higher, 0.121
- RRIRRRPPRLPRPRPRPWMQPRP — higher, 0.0811
- RRIRLRPPRLPRPRPRPVFVPRP — within 0.2 log units, -0.198
- RRIRERPPRLPRPRPRPVVHPRP — within 0.2 log units, -0.0247
- RRIRKRPPRLPRPRPRPKGTPRP — within 0.2 log units, 0.00171
- RRIRIRPPRLPRPRPRPYQEPRP — within 0.2 log units, 0.0173
- RRIRRRPPRLPRPRPRPNHTPRP — within 0.2 log units, -0.306
- RRIRARPPRLPRPRPRPNIAPRP — higher, 0.464
- RRIRVRPPRLPRPRPRPNQEPRP — within 0.2 log units, -0.176
- RRIRFRPPRLPRPRPRPCSHPRP — within 0.2 log units, -0.336
- RRIRWRPPRLPRPRPRPDCEPRP — higher, 2.54
- RRIRWRPPRLPRPRPRPGWSPRP — higher, 0.221
- RRIRLRPPRLPRPRPRPGCCPRP — higher, 0.387
- RRIRIRPPRLPRPRPRPQIPPRP — within 0.2 log units, -0.216
- RRIRIRPPRLPRPRPRPSYMPRP — lower, -1.53
- RRIRCRPPRLPRPRPRPGCEPRP — higher, 0.159
- RRIRKRPPRLPRPRPRPEWIPRP — higher, 0.454
- RRIRWRPPRLPRPRPRPGRCPRP — higher, 0.897
- RRIRTRPPRLPRPRPRPMSIPRP — within 0.2 log units, -0.143
- RRIRWRPPRLPRPRPRPIHNPRP — lower, -0.458
- RRIRVRPPRLPRPRPRPYHKPRP — within 0.2 log units, -0.0829
- RRIRPRPPRLPRPRPRPYSNPRP — lower, -1.31
- RRIRARPPRLPRPRPRPPSQPRP — higher, 0.669
- RRIRLRPPRLPRPRPRPPTKPRP — higher, 0.288
- RRIRHRPPRLPRPRPRPKNQPRP — within 0.2 log units, -0.16
- RRIRCRPPRLPRPRPRPNNHPRP — lower, -0.731
- RRIRCRPPRLPRPRPRPTDIPRP — lower, -0.623
- RRIRGRPPRLPRPRPRPLFEPRP — higher, 0.739
- RRIRGRPPRLPRPRPRPHQLPRP — higher, 0.339
- RRIRLRPPRLPRPRPRPQPQPRP — higher, 0.396
- RRIRRRPPRLPRPRPRPVAAPRP — higher, 1.42
- RRIRTRPPRLPRPRPRPWGIPRP — within 0.2 log units, -0.0774
- RRIRVRPPRLPRPRPRPSMHPRP — within 0.2 log units, -0.177
- RRIRMRPPRLPRPRPRPRMEPRP — within 0.2 log units, 0.0362
- RRIRFRPPRLPRPRPRPSIQPRP — within 0.2 log units, -0.0528
- RRIRARPPRLPRPRPRPVAVPRP — higher, 0.445
- RRIRHRPPRLPRPRPRPNNLPRP — lower, -0.596
- RRIRRRPPRLPRPRPRPPDIPRP — within 0.2 log units, -0.0254
- RRIRCRPPRLPRPRPRPYNLPRP — lower, -0.986
- RRIRIRPPRLPRPRPRPWPRPRP — higher, 0.277
- RRIRSRPPRLPRPRPRPLCIPRP — within 0.2 log units, -0.334
- RRIRMRPPRLPRPRPRPWDRPRP — higher, 0.158
- RRIRGRPPRLPRPRPRPGAVPRP — higher, 0.961
- RRIRDRPPRLPRPRPRPAVWPRP — higher, 1.19
- RRIRERPPRLPRPRPRPRLVPRP — within 0.2 log units, -0.0143
- RRIRMRPPRLPRPRPRPAAPPRP — higher, 1.65
- RRIRNRPPRLPRPRPRPYCCPRP — lower, -0.564
- RRIRIRPPRLPRPRPRPVKNPRP — lower, -0.765
- RRIRPRPPRLPRPRPRPNLVPRP — within 0.2 log units, -0.225
- RRIRRRPPRLPRPRPRPGSQPRP — within 0.2 log units, -0.0144
- RRIRGRPPRLPRPRPRPGCIPRP — higher, 0.445
- RRIRARPPRLPRPRPRPTCAPRP — higher, 0.863
- RRIRWRPPRLPRPRPRPHDIPRP — within 0.2 log units, 0.00165
- RRIRSRPPRLPRPRPRPDQYPRP — lower, -2.18
- RRIRQRPPRLPRPRPRPGACPRP — higher, 0.206
- RRIRIRPPRLPRPRPRPTIAPRP — within 0.2 log units, -0.327
- RRIRCRPPRLPRPRPRPEQTPRP — higher, 0.0662
- RRIRTRPPRLPRPRPRPVAIPRP — within 0.2 log units, -0.168
- RRIRIRPPRLPRPRPRPMLQPRP — lower, -0.452
- RRIRWRPPRLPRPRPRPKLWPRP — higher, 1.06
- RRIRDRPPRLPRPRPRPECIPRP — within 0.2 log units, 0.0163
- RRIRFRPPRLPRPRPRPLNQPRP — within 0.2 log units, -0.282
- RRIRIRPPRLPRPRPRPVVKPRP — within 0.2 log units, -0.151
- RRIRRRPPRLPRPRPRPRWEPRP — higher, 0.0983
- RRIRARPPRLPRPRPRPEPHPRP — higher, 0.374
- RRIRFRPPRLPRPRPRPDCMPRP — within 0.2 log units, -0.286
- RRIRNRPPRLPRPRPRPATEPRP — within 0.2 log units, 0.00868
- RRIRQRPPRLPRPRPRPMKIPRP — within 0.2 log units, -0.0609
- RRIRERPPRLPRPRPRPAGEPRP — higher, 0.0657
- RRIRPRPPRLPRPRPRPKVQPRP — higher, 0.327
- RRIRMRPPRLPRPRPRPFCSPRP — higher, 0.0534
- RRIRARPPRLPRPRPRPCKNPRP — higher, 0.138
- RRIRRRPPRLPRPRPRPRGEPRP — higher, 0.739
- RRIRERPPRLPRPRPRPLWRPRP — higher, 0.0888
- RRIRDRPPRLPRPRPRPCWCPRP — within 0.2 log units, -0.00088
- RRIRTRPPRLPRPRPRPVHPPRP — lower, -0.579
- RRIRCRPPRLPRPRPRPPLKPRP — higher, 0.353
- RRIRGRPPRLPRPRPRPLKTPRP — higher, 0.58
- RRIRGRPPRLPRPRPRPVEVPRP — higher, 1.03
- RRIRLRPPRLPRPRPRPGCAPRP — higher, 0.444
- RRIRARPPRLPRPRPRPYEMPRP — within 0.2 log units, -0.0385
- RRIRFRPPRLPRPRPRPMECPRP — within 0.2 log units, -0.0638
- RRIRDRPPRLPRPRPRPETTPRP — higher, 0.0986
- RRIRQRPPRLPRPRPRPEYSPRP — within 0.2 log units, -0.191
- RRIRLRPPRLPRPRPRPPFSPRP — within 0.2 log units, -0.25
- RRIRTRPPRLPRPRPRPWSSPRP — within 0.2 log units, -0.241
- RRIRLRPPRLPRPRPRPSWCPRP — within 0.2 log units, -0.277
- RRIRPRPPRLPRPRPRPMIDPRP — within 0.2 log units, -0.16
- RRIRNRPPRLPRPRPRPCSFPRP — within 0.2 log units, -0.217
- RRIRARPPRLPRPRPRPNCYPRP — within 0.2 log units, -0.211
- RRIRCRPPRLPRPRPRPQQAPRP — higher, 0.239
- RRIRLRPPRLPRPRPRPYWIPRP — within 0.2 log units, -0.00778
- RRIRTRPPRLPRPRPRPWCFPRP — within 0.2 log units, -0.046
- RRIRRRPPRLPRPRPRPTHWPRP — higher, 0.988
- RRIRFRPPRLPRPRPRPDIRPRP — within 0.2 log units, 0.0306
- RRIRKRPPRLPRPRPRPGVLPRP — higher, 0.293
